*1 amine or outer side, *2 acyl side, *3 side chain or, on linkers, in order; H or OH if unused. Where no end group is shown, it is not given here. The star is where a group is joined. thiosuccinyl = thiosuccinyl group on a lysine side chain (thiosuccinyl lysine); AMC = Cc1cc(=O)oc2cc(N*)ccc12; Suc = O=C(CCC(=O)[*:2])[*:1]

Results on three molecules are retold here after patent US20150057236A1 (CORNELL UNIVERSITY, published 2015).

Common to all, as to assay: cell-based or functional assay
Assay [1] deals with T1, human Sirt5 (human, UniProt Q9NXA8 1-310, limits assumed).
In assay [2] the target is T1, human Sirt5. This is another data set of the same source.
The target of assay [3] is T2, human Sirt1 (human, UniProt Q96EB6 1-747, limits assumed).
T2 sequence (looked up): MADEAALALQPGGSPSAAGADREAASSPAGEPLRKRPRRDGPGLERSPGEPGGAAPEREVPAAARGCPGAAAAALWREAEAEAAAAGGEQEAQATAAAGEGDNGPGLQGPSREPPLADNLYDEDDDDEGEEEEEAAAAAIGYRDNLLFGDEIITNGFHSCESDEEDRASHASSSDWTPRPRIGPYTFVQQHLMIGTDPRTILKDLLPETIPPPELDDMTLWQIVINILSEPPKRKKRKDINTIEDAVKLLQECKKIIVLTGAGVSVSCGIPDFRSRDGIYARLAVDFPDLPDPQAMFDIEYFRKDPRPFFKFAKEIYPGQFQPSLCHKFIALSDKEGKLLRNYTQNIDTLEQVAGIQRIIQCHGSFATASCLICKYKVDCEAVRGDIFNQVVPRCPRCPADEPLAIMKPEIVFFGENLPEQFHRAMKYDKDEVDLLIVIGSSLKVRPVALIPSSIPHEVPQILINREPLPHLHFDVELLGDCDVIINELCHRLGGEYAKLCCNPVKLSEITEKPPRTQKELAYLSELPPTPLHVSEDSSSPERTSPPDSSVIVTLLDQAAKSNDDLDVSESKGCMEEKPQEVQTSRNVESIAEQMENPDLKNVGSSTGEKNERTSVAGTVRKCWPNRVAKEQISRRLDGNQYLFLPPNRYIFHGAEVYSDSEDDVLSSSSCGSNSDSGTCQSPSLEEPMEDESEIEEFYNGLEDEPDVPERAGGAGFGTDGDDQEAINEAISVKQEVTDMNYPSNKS

Assay [4] has as its target T3, human Sirt2 (human, UniProt Q8IXJ6 1-389, limits assumed).
T3 sequence (looked up): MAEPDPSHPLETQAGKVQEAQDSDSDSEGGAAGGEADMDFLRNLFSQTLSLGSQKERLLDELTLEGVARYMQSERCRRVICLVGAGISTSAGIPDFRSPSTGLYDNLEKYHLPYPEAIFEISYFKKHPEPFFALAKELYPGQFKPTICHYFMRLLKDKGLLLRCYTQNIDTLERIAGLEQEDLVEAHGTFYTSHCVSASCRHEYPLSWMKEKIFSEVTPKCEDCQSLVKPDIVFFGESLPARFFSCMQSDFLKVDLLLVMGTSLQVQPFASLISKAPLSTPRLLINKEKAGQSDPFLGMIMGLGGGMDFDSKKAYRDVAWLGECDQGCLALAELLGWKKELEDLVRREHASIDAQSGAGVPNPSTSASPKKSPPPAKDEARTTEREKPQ

Assay [5] has as its target T4, human Sirt3 (human, UniProt Q9NTG7 102-399, limits assumed).
T4 sequence (looked up): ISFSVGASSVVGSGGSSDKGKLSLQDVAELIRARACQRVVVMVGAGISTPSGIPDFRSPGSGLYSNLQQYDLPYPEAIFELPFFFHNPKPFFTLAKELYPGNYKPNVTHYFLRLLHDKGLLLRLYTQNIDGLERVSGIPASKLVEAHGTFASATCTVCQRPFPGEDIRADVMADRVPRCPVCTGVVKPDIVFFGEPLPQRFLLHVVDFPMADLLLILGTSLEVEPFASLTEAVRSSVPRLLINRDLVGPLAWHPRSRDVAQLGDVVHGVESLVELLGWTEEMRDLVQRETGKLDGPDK

T1 sequence (Q9NXA8 whole entry): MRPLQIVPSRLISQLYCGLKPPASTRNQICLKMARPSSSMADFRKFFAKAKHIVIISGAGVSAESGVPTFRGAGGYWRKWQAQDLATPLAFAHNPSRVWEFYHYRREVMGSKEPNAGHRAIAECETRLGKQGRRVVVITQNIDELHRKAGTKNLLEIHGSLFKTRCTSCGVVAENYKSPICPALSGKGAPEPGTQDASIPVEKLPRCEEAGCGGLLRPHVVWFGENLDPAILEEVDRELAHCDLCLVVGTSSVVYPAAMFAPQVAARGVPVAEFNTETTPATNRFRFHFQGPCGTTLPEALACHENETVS

B1: ISGASE(SuK)-AMC peptide (peptide)
peptide: ISGASEK(Suc)-{AMC}
With B1, in assay [1], the “fluorescence increase against control without Sirt5, 1 µM Sirt5” value was found to be 11 fold; the “fluorescence increase against control without Sirt5, 2 µM Sirt5” value stood at 20 fold; the “fluorescence increase against control without Sirt5, 5 µM Sirt5” value came out at 26 fold.

B2: H3K9 thiosuccinyl (H3K9 TSu) peptide, KQTAR(TSuK)STGGKA (peptide)
peptide: KQTARK(thiosuccinyl)STGGKA
For the molecule B2, the “IC50 (µM), inhibition of sirtuin deacylase activity” value in assay [2] was 5 µM; in assay [3], above 100 µM; in assay [4] it was above 100 µM; in assay [5], above 100 µM.

B3: KQTAR(SuK)-AMC peptide (peptide)
peptide: KQTARK(Suc)-{AMC}
As to B3, in assay [1], the “fluorescence increase against control without Sirt5 (fluorogenic assay)” value was around 3 fold.
